This note sets out measurements from US20060093613A1 (published 2006).

The target in the assay is T1, influenza virus nucleoprotein peptide on H-2Db (mouse).
T1 peptide: ASNENMDAM
The assay can be described thus: Kd or kinetics.

B1: F5 TCR (TCR, V domains shown)
Valpha: GDSVTQMQGQVTLSEDDFLFINCTYSTTWYPTLFWYVQYPGEGPQLLLKVTTANNKGISRGFEATYDKGTTSFHLQKASVQESDSAVYYCVLGDRQGGRALIFGTGTTVSVSP
Vbeta: KAGVTQTPRYLIKTRGQQVTLSCSPISGHRSVSWYQQTPGQGLQFLFEYFSETQRNKGNFPGRFSGRQFSNSRSEMNVSTLELGDSALYLCASSFDSGNSPLHFGNGTRLTVT
In the case of B1, the binding result was “recognises”.
